Source: PMC11456556

Assays:
alpha-synuclein monomer [1] = target: T1, alpha-synuclein monomer (human, UniProt P37840 1-140); assay: DNase I footprinting
alpha-synuclein monomer [2] = target: T1, alpha-synuclein monomer; assay: EIS
beta-synuclein = beta-synuclein (UniProt Q16143 1-134); assay: MST
gamma-synuclein = gamma-synuclein (UniProt O76070 1-127); assay: MST
Chain of gamma-synuclein (O76070 whole entry): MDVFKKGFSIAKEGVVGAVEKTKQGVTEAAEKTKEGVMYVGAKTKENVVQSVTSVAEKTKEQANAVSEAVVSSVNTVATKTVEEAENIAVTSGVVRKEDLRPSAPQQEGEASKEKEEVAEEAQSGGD

Chain of beta-synuclein (Q16143 whole entry): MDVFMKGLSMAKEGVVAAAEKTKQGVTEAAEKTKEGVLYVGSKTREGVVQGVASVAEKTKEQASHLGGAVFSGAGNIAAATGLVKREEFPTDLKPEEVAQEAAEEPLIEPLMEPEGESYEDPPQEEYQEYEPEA

B1: a-syn-1 (5'-fluorescein) (ssDNA)
DNA: ATAGTCCCATCATTCATTGTAAGGAAACGCTACGGGGTGGGTACGGCAAGATATTAGCAAGTGTCA
- Kd (alpha-synuclein monomer [1]): 28 ± 14 nM

B2: a-syn-1 (thiol, on gold electrode) (ssDNA)
DNA: ATAGTCCCATCATTCATTGTAAGGAAACGCTACGGGGTGGGTACGGCAAGATATTAGCAAGTGTCA
modifications: thiol (end not stated), immobilized on gold
- Kd (alpha-synuclein monomer [2]): 70 ± 3 nM

B3: a-syn-1 (5'-Cy5) (ssDNA)
DNA: ATAGTCCCATCATTCATTGTAAGGAAACGCTACGGGGTGGGTACGGCAAGATATTAGCAAGTGTCA
- binding result (beta-synuclein): no binding
- binding result (gamma-synuclein): no binding
